Experimental data as given in patent publication US7214519B2, “Screening method for identifying heme independent modulators of soluble guanylyl cyclase (sGC) activity using αβCys105 mutant sGC” (Board of Regents of the University of Texas System, priority 2003, dated 2007).
Where a chain is given by its changes, count along the chain named. Read-outs that look alike come from different tables or passages of the source.

Legend:
[1] = molecular target: T1, wild type sGC (Homo sapiens, UniProt Q02108+Q02153); experiment: Assay of sGC activity ([32P]cGMP formation from GTP), purified wild type enzyme; type: biochemical
T1 construct: made in house; host or cells: Sf9 cells (baculovirus)
T1 sequence (Q02153 1-619): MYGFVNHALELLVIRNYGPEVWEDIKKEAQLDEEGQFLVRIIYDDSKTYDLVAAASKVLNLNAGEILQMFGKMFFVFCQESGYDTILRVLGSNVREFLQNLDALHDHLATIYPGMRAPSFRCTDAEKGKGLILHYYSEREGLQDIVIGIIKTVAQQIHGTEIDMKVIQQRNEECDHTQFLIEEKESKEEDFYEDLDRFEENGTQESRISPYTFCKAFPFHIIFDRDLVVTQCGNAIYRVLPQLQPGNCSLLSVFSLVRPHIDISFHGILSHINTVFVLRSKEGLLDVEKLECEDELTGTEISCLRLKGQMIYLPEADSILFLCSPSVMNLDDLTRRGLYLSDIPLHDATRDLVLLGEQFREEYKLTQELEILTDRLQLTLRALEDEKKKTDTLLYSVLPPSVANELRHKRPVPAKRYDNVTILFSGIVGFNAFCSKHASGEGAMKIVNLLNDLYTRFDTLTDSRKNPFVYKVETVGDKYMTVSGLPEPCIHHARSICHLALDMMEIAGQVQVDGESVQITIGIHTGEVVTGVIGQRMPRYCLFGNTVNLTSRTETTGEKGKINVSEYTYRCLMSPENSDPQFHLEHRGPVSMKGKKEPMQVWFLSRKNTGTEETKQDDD
T1 sequence (Q02108 1-690): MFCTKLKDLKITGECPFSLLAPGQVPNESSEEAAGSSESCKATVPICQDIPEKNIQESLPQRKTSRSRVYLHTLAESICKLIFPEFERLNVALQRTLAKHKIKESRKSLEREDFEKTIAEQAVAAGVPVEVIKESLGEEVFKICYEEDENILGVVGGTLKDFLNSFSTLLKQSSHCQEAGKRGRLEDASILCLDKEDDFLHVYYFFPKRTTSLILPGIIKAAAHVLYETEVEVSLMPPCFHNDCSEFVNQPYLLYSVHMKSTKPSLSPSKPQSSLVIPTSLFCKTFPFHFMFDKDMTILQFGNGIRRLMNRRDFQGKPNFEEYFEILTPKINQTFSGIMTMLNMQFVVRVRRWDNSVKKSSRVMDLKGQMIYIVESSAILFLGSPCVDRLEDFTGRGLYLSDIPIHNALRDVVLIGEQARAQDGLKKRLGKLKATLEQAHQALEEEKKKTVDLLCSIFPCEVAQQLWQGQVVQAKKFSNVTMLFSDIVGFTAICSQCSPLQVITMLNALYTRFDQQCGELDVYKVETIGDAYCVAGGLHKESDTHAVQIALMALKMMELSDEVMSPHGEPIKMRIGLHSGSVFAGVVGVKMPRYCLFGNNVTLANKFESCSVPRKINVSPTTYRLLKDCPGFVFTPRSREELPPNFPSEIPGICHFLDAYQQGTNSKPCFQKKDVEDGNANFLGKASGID
Procedure: (§1) sGC Expression and Purification. […] Purification of sGC was performed as described earlier (26), the disclosure of which is hereby incorporated herein by reference, with the following modifications. Cells were harvested 72 h post infection, resuspended in loading buffer (25 mM triethanolamine, pH 7.5. 10 glycerol, 4 mM MgCl2 and 1 mM phenylmethylsulfonyl fluoride, and 5 μg/ml each of pepstatin A, leupeptin, aprotinin, and chymostatin,) and lysed by sonication. The lysate was subjected to 100,000×g centrifugation for 1 h. The high-speed supernate was loaded on a 60 ml DEAE-Sepharose (Amersham Pharmacia Biotech) column and washed with 60 ml of loading buffer without protease inhibitors. The proteins were eluted with loading buffer containing 250 mM NaCl and the eluate was directly loaded on a 30 ml His-Bind resin (Novagen) column. The column was washed with 60 ml of loading buffer followed by 60 ml of loading buffer with 45 mM imidazole. The enzyme was eluted with 175 mM imidazole and 2 ml fractions were collected. […] The enzyme at this stage was approximately 90–95% pure. To remove imidazole, sGC-containing fractions were diluted 3 fold with 25 mM triethanolamine pH 7.5, loaded on a 2 ml Hi-Trap DEAE-Sepharose column (Amersham Pharmacia Biotech), washed with 10 ml of loading buffer and eluted with 25 mM triethanolamine pH 7.5, 250 mM NaCl, 10 glycerol, 4 mM MgCl2, 0.5 mM EDTA, 0.5 mM EGTA. The enzyme obtained at this stage (95% or greater purity) was used for experiments.
(§2) Assay of sGC Activity. Enzyme activity was assayed by formation of [^32P] cGMP from α[^32P]GTP at 37° C. in a final volume of 100 μl. Incubation medium contained 50 mM triethanolamine-HCl buffer (pH 7.4), 1 mM 3-isobutyl-1-methylxanthine (IBMX), 1 mg/ml BSA. 1 mM cGMP, 3 mM MgCl2, 0.05 mg/ml creatine phosphokinase, 5 mM creatine phosphate, 0.1 mM EGTA. 200 μM GTP (about 10.000 cpm/pmol). The reaction was started by addition of the substrate (GTP) with or without activators. 1 mM DTT, GSH or cysteine were added to the incubation medium before the addition of GTP. Thiol concentration varied in some experiments as indicated. Samples containing 0.2 μg sGC were incubated for 10 or 15 min and the reaction was stopped by addition of 500 μl 150 mM zinc acetate and 500 μl 180 mM sodium carbonate. The pellet of zinc carbonate containing most of the unreacted GTP was removed by centrifugation and the supernatant fractions were loaded onto columns filled with 1 g of neutral alumina. Columns were then eluted with 10 ml 0.1 M Tris-HCl buffer (pH 7.5) and Cherenkov radiation in flow through plus eluate was counted in a LKB liquid scintillation spectrometer. Samples incubated in the absence of sGC were used as a negative control. The concentration of dimethylsulfoxide (DMSO) used as a vehicle for YC-1 was not higher than 0.1 and had no effect on sGC activity as determined previously.

[2] = molecular target: T2, Sf9 cells expressing wild type sGC (Homo sapiens, UniProt Q02108+Q02153); experiment: cGMP accumulation in intact Sf9 cells expressing wild type sGC; type: cell-based; settings: basal, 0.5 mM IBMX
T2 construct: expressed in transfected cells; host or cells: Sf9 cells infected with baculoviruses
T2 sequence (Q02153 1-619): T1 sequence (Q02153 1-619)
T2 sequence (Q02108 1-690): T1 sequence (Q02108 1-690)
Procedure: Assay of cGMP Accumulation in Intact Cells. […] The reaction was terminated by addition of 50 μl of 1 M perchloric acid and cGMP was extracted on ice for 1 h. The extract was centrifuged, neutralized with 2M K2CO3 and used for cGMP determination by radioimmunoassay (9, 27). The pellet was dissolved in 0.1 M NaOH and used for protein assay by the method of Lowry (28).
Accumulated cGMP was extracted and quantified as described in Materials and Methods. Values are shown as means±s.d. The differences in intracellular accumulation of cGMP in Sf9 cells expressing the wild type enzyme or the mutant form are discussed below.

[3] = molecular target: T1, wild type sGC; settings: cited from earlier work
[4] = molecular target: T3, αβ^Cys105 mutant sGC (Homo sapiens, UniProt Q02108+Q02153, H105C); experiment: Assay of sGC activity ([32P]cGMP formation from GTP), purified αβ^Cys105 mutant enzyme; type: biochemical; settings: for sensitivity to SNP after addition of hemin: absence of DTT
T3 construct: made in house; host or cells: Sf9 cells (baculovirus)
T3 sequence (Q02153 1-619 H105C): T1 sequence (Q02153 1-619) with H105C
T3 sequence (Q02108 1-690): T1 sequence (Q02108 1-690)
Procedure: as §1, §2

[5] = molecular target: T3, αβ^Cys105 mutant sGC; experiment: Heme reconstitution of DTT-treated αβ^Cys105 enzyme followed by UV-Vis spectroscopy; type: binding; settings: data not shown
Procedure: UV-Vis Spectroscopy. All absorbance measurements were recorded with a dual-beam Cecil 9500 spectrophotometer at 25° C. […] Hemin stock solution (5 mM) was prepared in DMSO and was reduced by dilution in 25 mM TEA, pH 7.5 containing 5 mM DTT to a working solution of 500 μM. The reduced heme was kept under argon in a gas-tight vial during the reconstitution.
The enzyme reconstituted with 10 μM hemin was subjected to gel filtration (after GF) or treated for 15 min with 50 μM NOC-7 (with NO) and the spectra recorded, as shown in FIG. 5D.

PPIX activation, fold ([1]; +DTT) | PPIX activation, fold ([1]; No DTT) | fold activation by NO ([1]; with DTT) | rate of cGMP accumulation [2] | sensitivity to SNP after addition of hemin ([4]; 1 μM hemin) | sensitivity to SNP after addition of hemin ([4]; 10 μM hemin, data not shown) | NO-activation upon addition of hemin ([4]; presence of 1 mM DTT) | molar excess of reduced hemin at which binding is saturated [5] | Substance | Specific activity ([1]; +NO (SNP), with DTT (1 mM)) | Specific activity ([1]; +NO (SNP), with DTT (1 mM), listed as wild type) | Specific activity ([1]; +NO, without DTT) | Specific activity ([1]; Basal, with DTT (1 mM)) | Specific activity ([1]; Basal, with DTT (1 mM), listed as Wild type) | Specific activity ([1]; Basal, with DTT (1 mM), listed as wild type) | Specific activity ([1]; Basal, without DTT) | Specific activity ([1]; Basal, without DTT, listed as Wild type) | Km ([3]; Basal, read-out: GTP-Km) | Km ([3]; NO, read-out: GTP-Km) | Km ([3]; literature (12, 30–32), read-out: range of GTP-Km measured for the recombinant sGC) | specific activity after exposure to NO ([3]; recombinant wild type human sGC, previous studies)
14 fold | 6 fold | (72.5) fold | 0.9 nmol/mg/5 min |  |  |  |  | Wild Type: recombinant wild type human soluble guanylyl cyclase expressed in Sf9 cells | 1.45 ± 0.1 µmol/min/mg | 1.4 µmol/min/mg | 1.41 ± 0.2 µmol/min/mg | 0.02 ± 0.01 µmol/min/mg | 0.02 µmol/min/mg | 0.02 µmol/min/mg | 0.05 ± 0.02 µmol/min/mg | 0.05 µmol/min/mg | 65 to 448 µM | 11 to 134 µM | 65 to 450 µM | ~1.5 µmol/min/mg
 |  |  |  | did not confer any sensitivity to SNP | did not have any significant effect | partially restored its NO-activation | 13 fold molar excess | Hemin [reference compound] |  |  |  |  |  |  |  |  |  |  |  | 
